These results are taken from patent US20160222100A1.

The target of assay [1] is secreted neuroligin-3 in conditioned medium of optogenetically stimulated Thy1::ChR2 mouse cortical slices (mouse). Briefly: cell-based or functional assay.
For assay [2], the target named is recombinant full-length neuroligin-3 (Origene) (mouse) (UniProt Q8BYM5). Kind of assay: cell-based or functional assay.
UniProt Q8BYM5, sequence (Q8BYM5 35-825 limits assumed): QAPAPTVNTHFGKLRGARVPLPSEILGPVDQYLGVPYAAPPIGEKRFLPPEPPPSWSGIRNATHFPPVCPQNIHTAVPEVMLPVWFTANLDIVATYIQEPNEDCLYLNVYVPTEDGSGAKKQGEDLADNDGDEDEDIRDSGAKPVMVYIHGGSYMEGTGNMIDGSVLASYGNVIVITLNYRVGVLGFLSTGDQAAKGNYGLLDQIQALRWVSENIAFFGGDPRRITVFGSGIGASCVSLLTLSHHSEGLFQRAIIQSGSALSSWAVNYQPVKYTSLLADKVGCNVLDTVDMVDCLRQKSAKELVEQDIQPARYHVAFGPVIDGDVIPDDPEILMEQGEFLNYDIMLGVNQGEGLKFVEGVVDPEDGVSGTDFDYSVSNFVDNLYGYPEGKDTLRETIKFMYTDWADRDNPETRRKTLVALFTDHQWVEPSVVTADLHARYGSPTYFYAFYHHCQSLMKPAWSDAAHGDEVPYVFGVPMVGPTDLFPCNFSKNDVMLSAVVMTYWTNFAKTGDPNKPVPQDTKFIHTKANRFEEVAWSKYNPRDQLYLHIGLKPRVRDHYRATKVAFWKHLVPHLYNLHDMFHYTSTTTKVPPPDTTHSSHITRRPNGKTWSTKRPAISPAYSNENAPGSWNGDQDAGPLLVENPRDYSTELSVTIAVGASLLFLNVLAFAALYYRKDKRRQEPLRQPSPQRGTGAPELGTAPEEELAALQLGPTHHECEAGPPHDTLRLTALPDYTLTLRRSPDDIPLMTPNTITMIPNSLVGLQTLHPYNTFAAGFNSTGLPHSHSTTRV

On to “neurexin-1β (recombinant, R&D Systems) (ligand)”, for which the figures for the proliferation index of pHGG (SU-pcGBM2) cells, EdU assay, 24 h in assay [1] and in assay [2] were 0.34 and 0.28, respectively.
